This is an account of results in patent publication US20140256912A1, “Stabilized Variant MAML Peptides and Uses Thereof” (PRESIDENT AND FELLOWS OF HARVARD COLLEGE, priority 2011, published 2014).

Bridge positions count the residues as written; N and C are the ends. Square brackets hold non-standard residues; d marks the D form. Ends that are not written are not given here. S5 = C=CCCC[C@](C)(N)C(=O)O; βAla = NCCC(=O)O

Assay [1] has as its target T1, Bio-sdnMAML1 binding to GST-RAMANK1-CSL (Homo sapiens, UniProt P46531+Q06330).
T1 construct: RAMANK1 (residues 1761-2127) and GST-labeled RAMANK1; Human CSL bearing a C-terminal hexahistidine tag (residues 9-435); hexahistidine (His6) (C); made in house; host or cells: E. coli BL21(DE3) pLysS (proteins); solid-phase peptide synthesis (Bio-sdnMAML1)
In words: ALPHAscreen NTC competition assay. Conditions: titration of unlabeled peptide (FIG. 2h). An excerpt: The biophysics of NTC assembly has been studied using relatively low-throughput assays including electrophoretic-mobility shift assays^24, isothermal titration calorimetry^49, and various immunoprecipitation strategies. More recently, Del Bianco et al. reported the use of a FRET-based system measuring the proximity of a donor fluorophore-labeled ANK protein to an acceptor-labeled oligonucleotide upon NTC assembly, which allowed determination of relative equilibrium constants for the entire complex^45. We also reported the use of surface plasmon resonance (SPR) and fluorescence polarization assays measuring the association of NTC components with each other and with stapled peptides^37. To date however, there are no high-throughput assays reported that quantitatively measure dnMAML1-NOTCH-CSL complex formation. […] The ALPHAscreen technology (ALPHA meaning amplified luminescence proximity homogenous assay) employs functionalized beads approximately 200 nm in diameter to detect the association of cognate binding partners in solution^50,51. […] The use of microwave-assisted peptide synthesis and a slightly altered SPPS protocol readily afforded the biotinylated sdnMAML1 peptide (bio-sdnMAML1, and others with alternative N-terminal modifications) at greater than 95% purity by LCMS analysis (FIG. 2b, FIG. 7). […]
A general note: Alpha assays give light when donor and acceptor beads are brought close together.

The subject of assay [2] is Notch target genes (HES1, MYC, DTX1). The settings on record: incubated with human T-ALL cells; cited from earlier work.
Another assay concerns the target ICN1-CSL complex (Homo sapiens, UniProt P46531+Q06330). Conditions: cited from earlier work.

ICN1-CSL complex, sequence (P46531 1754-2555 limits assumed): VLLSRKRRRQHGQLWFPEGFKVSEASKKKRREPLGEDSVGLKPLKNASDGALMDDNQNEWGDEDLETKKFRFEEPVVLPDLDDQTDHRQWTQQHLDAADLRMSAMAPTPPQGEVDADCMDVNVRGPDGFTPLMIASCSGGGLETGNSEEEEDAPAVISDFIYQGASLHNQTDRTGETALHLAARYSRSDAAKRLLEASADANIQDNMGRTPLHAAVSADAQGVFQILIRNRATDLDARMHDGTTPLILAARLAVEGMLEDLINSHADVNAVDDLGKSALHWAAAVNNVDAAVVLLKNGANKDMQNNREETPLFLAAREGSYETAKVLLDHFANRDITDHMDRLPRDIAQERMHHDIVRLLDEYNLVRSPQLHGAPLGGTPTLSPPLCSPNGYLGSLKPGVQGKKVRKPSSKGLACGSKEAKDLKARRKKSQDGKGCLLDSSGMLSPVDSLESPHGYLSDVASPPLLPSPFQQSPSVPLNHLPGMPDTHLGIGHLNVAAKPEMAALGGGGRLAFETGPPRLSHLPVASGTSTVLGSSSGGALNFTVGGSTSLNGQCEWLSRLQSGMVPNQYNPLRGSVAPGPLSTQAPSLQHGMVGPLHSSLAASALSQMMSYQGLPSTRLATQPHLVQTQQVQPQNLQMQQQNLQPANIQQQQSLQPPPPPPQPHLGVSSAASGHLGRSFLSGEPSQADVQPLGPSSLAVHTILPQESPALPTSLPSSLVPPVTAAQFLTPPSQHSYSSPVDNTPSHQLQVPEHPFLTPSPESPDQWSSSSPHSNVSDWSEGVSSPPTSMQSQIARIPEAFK
ICN1-CSL complex, sequence (Q06330 whole entry): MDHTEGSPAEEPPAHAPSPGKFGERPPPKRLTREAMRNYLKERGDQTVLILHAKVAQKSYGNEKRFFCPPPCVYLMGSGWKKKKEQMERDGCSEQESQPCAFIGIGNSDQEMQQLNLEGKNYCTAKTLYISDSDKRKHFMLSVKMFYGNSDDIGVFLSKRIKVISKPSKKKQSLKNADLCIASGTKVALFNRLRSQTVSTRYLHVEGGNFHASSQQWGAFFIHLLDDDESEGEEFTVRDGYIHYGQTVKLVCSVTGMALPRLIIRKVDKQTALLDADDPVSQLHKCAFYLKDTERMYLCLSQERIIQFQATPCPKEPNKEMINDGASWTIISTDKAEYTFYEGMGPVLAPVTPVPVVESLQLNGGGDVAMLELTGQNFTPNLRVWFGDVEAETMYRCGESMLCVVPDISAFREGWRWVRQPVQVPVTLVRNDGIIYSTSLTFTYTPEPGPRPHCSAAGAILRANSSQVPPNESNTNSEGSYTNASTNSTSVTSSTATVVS
T1 sequence (P46531 1760-2126): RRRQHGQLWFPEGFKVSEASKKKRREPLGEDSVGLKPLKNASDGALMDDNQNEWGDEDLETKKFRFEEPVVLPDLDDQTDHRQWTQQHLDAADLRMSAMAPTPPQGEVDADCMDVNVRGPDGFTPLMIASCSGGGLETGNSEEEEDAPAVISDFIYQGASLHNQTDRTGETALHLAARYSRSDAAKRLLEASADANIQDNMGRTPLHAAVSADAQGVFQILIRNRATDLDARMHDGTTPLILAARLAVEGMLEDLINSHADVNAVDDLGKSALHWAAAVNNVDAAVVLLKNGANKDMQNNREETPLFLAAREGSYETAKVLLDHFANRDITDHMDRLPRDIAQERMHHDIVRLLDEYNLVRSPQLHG
T1 sequence (Q06330 23-449): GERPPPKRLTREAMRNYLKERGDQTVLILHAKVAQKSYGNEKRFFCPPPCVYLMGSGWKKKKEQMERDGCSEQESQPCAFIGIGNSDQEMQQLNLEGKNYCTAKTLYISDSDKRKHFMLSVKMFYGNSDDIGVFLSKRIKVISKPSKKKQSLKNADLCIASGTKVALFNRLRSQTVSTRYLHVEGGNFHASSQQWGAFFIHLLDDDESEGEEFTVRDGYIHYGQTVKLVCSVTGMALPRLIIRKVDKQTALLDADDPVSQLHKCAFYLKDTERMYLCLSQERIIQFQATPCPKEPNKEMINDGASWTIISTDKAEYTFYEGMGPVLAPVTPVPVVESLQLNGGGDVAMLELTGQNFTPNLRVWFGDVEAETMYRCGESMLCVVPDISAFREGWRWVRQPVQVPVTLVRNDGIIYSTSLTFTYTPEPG

With “Ac-sdnMAML1: non-labeled competitor dnMAML1 peptide capped with an acetylated beta-alanine spacer ({Ac-βAla}-HSAVMERLRRRIELCRRHHSTCEARYEAVSPERLELERQHTFALHQRCIQAKAKR; staple (positions not given here); also: stapled, staple positions not given here)”, the “dissociation of pre-incubated bio-sdnMAML1-GSTRAMANK1-CSL complex” value in assay [1] is given as “dose-dependent dissociation of the complex”. As for “SAHM1: stapled MAML1 E21-T36 peptide with E28 and R32 replaced by i→i+4 ligated α,α-disubstituted S5 amino acids; previously reported (Ac-W[βAla]ERLRRRI[S5]LCR[S5]HHST; staple 10-14)”, the “expression of canonical Notch target genes” value in assay [2] is “inhibit the expression of a panel of canonical Notch target genes”. Further, in the assay with ICN1-CSL complex, the “binding to ICN1-CSL complex and competition with MAML1” value is “specifically bind the ICN1-CSL complex and competitively inhibit binding of recombinant dnMAML1 as well as full-length MAML1”.
